By stoichiometry N is commonly meant a count of units in the complex or per binding partner.

For data set [1], the target named is N-terminally 3xFLAG-tagged G64D mutant ZIP13 (human). In words: native gel or EMSA; blue native-PAGE of lysates of 293T cells expressing F-WT or F-G64D. (In general: In EMSA bound probe runs differently from free probe, usually more slowly.)
Data set [2] concerns the molecule itself. Described as above.

Molecule “N-terminally 3xFLAG-tagged G64D mutant ZIP13 (natural protein)” returned a stoichiometry N in data set [1] of 2.

B1: N-terminally 3xFLAG-tagged wild-type ZIP13 (natural protein, human, UniProt Q96H72 1-371, looked up)
chain: MPGCPCPGCGMAGPRLLFLTALALELLERAGGSQPALRSRGTATACRLDNKESESWGALLSGERLDTWICSLLGSLMVGLSGVFPLLVIPLEMGTMLRSEAGAWRLKQLLSFALGGLLGNVFLHLLPEAWAYTCSASPGGEGQSLQQQQQLGLWVIAGILTFLALEKMFLDSKEEGTSQAPNKDPTAAAAALNGGHCLAQPAAEPGLGAVVRSIKVSGYLNLLANTIDNFTHGLAVAASFLVSKKIGLLTTMAILLHEIPHEVGDFAILLRAGFDRWSAAKLQLSTALGGLLGAGFAICTQSPKGVVGCSPAAEETAAWVLPFTSGGFLYIALVNVLPDLLEEEDPWRSLQQLLLLCAGIVVMVLFSLFVD
notes: ZIP13 (SLC39A13) zinc transporter, human, wild type; construct as previously described (Fukada et al, 2008); The 3xFLAG precedes the signal peptide; also called F-WT; F-ZIP13; source: 293T, transfected, in lysate; not shown: 3xFLAG, N-terminal, kept
For the molecule B1, the “stoichiometry N” value in data set [2] was determined as 2.

These data come from article PMC4154131, “Molecular pathogenesis of Spondylocheirodysplastic Ehlers-Danlos syndrome caused by mutant ZIP13 proteins” (EMBO Molecular Medicine, 2014).
